These results are taken from PMC4692527.

Assay [1] deals with FvTox1 in the pLexA vector (LexA fusion) (Fusarium virguliforme). Nature of the assay: two-hybrid; LexA two-hybrid system, yeast EGY48 [pSH18-34]; FvTox1 in pLexA, peptides in pB42AD; reporters LacZ and LEU2; quantitative β-galactosidase activity (Miller units), three biological replications.
The target in assay [2] is GST-tagged FvTox1 (Fusarium virguliforme). Nature of the assay: pull-down; purified His-tagged peptides/fusion proteins mixed with GST-tagged FvTox1, pulled down with glutathione resin; western blot with anti-His antibody; relative percent pulled down, two independent experiments. Background: In western blotting, separated proteins are transferred to a membrane and probed.

Regarding “soybean GmTRX3, a thioredoxin protein (natural protein)”, the β-galactosidase activity in assay [1] is 9.64 Miller units. Consider “soybean GmGD1, a glycine cleavage protein (natural protein)”, for which, in assay [1], the β-galactosidase activity is 5.79 Miller units. Consider GGGGSGGGGSGGGGSSYLPETIYEYRLGGGGS [synthetic FvTox1-interacting peptide 1 in pB42AD (no flanking cysteines)], for which the β-galactosidase activity in assay [1] came out at 6.59 Miller units. GGGGSGGGGSGGGGSSYLPETIYEYRLGGGGS [synthetic FvTox1-interacting peptide 1 (His-tagged, expressed in E. coli)] registered a percent peptide pulled down by FvTox1 (relative binding strength) in assay [2] of 3.9 percent.

For the molecule GGGGSGGGGSGGGGSHEGAWHNYARSVGGGGS [synthetic FvTox1-interacting peptide 3 (His-tagged, expressed in E. coli)], the percent peptide pulled down by FvTox1 (relative binding strength) in assay [2] is 2.7 percent. In assay [1], GGGGSGGGGSGGGGSHEGAWHNYARSVGGGGS [synthetic FvTox1-interacting peptide 3 in pB42AD (no flanking cysteines)] registered a β-galactosidase activity of 5.87 Miller units. Same read-out and setting: as for GGGGSGGGGSGGGGSSNGRVADGGGGS [synthetic FvTox1-interacting peptide 4 in pB42AD (no flanking cysteines)], the figure is 6.45 Miller units.

B1: synthetic FvTox1-interacting fusion peptide 8 (PEP1-PEP2-PEP4; His-tagged, expressed in E. coli) (designed binder)
chain: GGGGSGGGGSGGGGSSYLPETIYEYRLGGGGSELGGGGSGGGGSGGGGSVENKTRYHDREVGGGGSLEGGGGSGGGGSGGGGSSNGRVADGGGGS
In assay [2], B1 displayed a percent peptide pulled down by FvTox1 (relative binding strength) of 26 percent.

B2: synthetic FvTox1-interacting fusion peptide 8 in pB42AD (no flanking cysteines) (designed binder)
chain: GGGGSGGGGSGGGGSSYLPETIYEYRLGGGGSELGGGGSGGGGSGGGGSVENKTRYHDREVGGGGSLEGGGGSGGGGSGGGGSSNGRVADGGGGS
For B2, the β-galactosidase activity in assay [1] was 3.35 Miller units.

B3: synthetic FvTox1-interacting fusion peptide 5 (PEP1-PEP2; His-tagged, expressed in E. coli) (designed binder)
chain: GGGGSGGGGSGGGGSSYLPETIYEYRLGGGGSELGGGGSGGGGSGGGGSVENKTRYHDREVGGGGS
B3: in assay [2], the percent peptide pulled down by FvTox1 (relative binding strength) stood at 31.8 percent.

B4: synthetic FvTox1-interacting fusion peptide 5 in pB42AD (no flanking cysteines) (designed binder)
chain: GGGGSGGGGSGGGGSSYLPETIYEYRLGGGGSELGGGGSGGGGSGGGGSVENKTRYHDREVGGGGS
In assay [1], B4 yielded a β-galactosidase activity of 3.11 Miller units.

B5: synthetic FvTox1-interacting fusion peptide 6 (PEP3-PEP4; His-tagged, expressed in E. coli) (designed binder)
chain: GGGSGGGGSGGGGSHEGAWHNYARSVGGGGSELGGGGSGGGGSGGGGSSNGRVADGGGGS
B5 registered a percent peptide pulled down by FvTox1 (relative binding strength) in assay [2] of 8.8 percent.

B6: synthetic FvTox1-interacting fusion peptide 6 in pB42AD (no flanking cysteines) (designed binder)
chain: GGGSGGGGSGGGGSHEGAWHNYARSVGGGGSELGGGGSGGGGSGGGGSSNGRVADGGGGS
Turning to B6, the β-galactosidase activity in assay [1] was found to be 5.32 Miller units.

B7: synthetic FvTox1-interacting fusion peptide 7 (PEP1-PEP2-PEP3; His-tagged, expressed in E. coli) (designed binder)
chain: GSGGGGSGGGGSGGGGSSYLPETIYEYRLGGGGSELGGGGSGGGGSGGGGSVENKTRYHDREVGGGGSLEGGGGSGGGGSGGGGSHEGAWHNYARSVGGGGS
In assay [2], B7 registered a percent peptide pulled down by FvTox1 (relative binding strength) of 38.5 percent.

B8: synthetic FvTox1-interacting fusion peptide 7 in pB42AD (no flanking cysteines) (designed binder)
chain: GSGGGGSGGGGSGGGGSSYLPETIYEYRLGGGGSELGGGGSGGGGSGGGGSVENKTRYHDREVGGGGSLEGGGGSGGGGSGGGGSHEGAWHNYARSVGGGGS
B8 gave a β-galactosidase activity in assay [1] of 6.12 Miller units.

B9: synthetic FvTox1-interacting fusion peptide 9 (PEP1-PEP2-PEP3-PEP4; His-tagged, expressed in E. coli) (designed binder)
chain: GGGGSGGGGSGGGGSSYLPETIYEYRLGGGGSELGGGGSGGGGSGGGGSVENKTRYHDREVGGGGSLEGGGGSGGGGSGGGGSHEGAWHNYARSVGGGGSGTGGGGSGGGGSGGGGSSNGRVADGGGGS
As to B9, in assay [2], the percent peptide pulled down by FvTox1 (relative binding strength) is 47 percent.

B10: synthetic FvTox1-interacting fusion peptide 9 in pB42AD (no flanking cysteines) (designed binder)
chain: GGGGSGGGGSGGGGSSYLPETIYEYRLGGGGSELGGGGSGGGGSGGGGSVENKTRYHDREVGGGGSLEGGGGSGGGGSGGGGSHEGAWHNYARSVGGGGSGTGGGGSGGGGSGGGGSSNGRVADGGGGS
For the molecule B10, the β-galactosidase activity in assay [1] is 5.64 Miller units. On to GGGGSGGGGSGGGGSSNGRVADGGGGS [synthetic FvTox1-interacting peptide 4 (His-tagged, expressed in E. coli)], for which the percent peptide pulled down by FvTox1 (relative binding strength) in assay [2] was determined as 2.3 percent. In the case of GGGGSGGGGSGGGGSVENKTRYHDREVGGGGS [synthetic FvTox1-interacting peptide 2 (His-tagged, expressed in E. coli)], in assay [2], the percent peptide pulled down by FvTox1 (relative binding strength) worked out at 5.5 percent. On to GGGGSGGGGSGGGGSVENKTRYHDREVGGGGS [synthetic FvTox1-interacting peptide 2 in pB42AD (no flanking cysteines)], for which the β-galactosidase activity in assay [1] turned out to be 5.88 Miller units.
